Assay results reported in US9295724B2, “Stable formulations for parenteral injection of peptide drugs” (Xeris Pharmaceuticals, Inc., priority 2011, dated 2016).

Tests used:
[1] = Freezing point depression of DMSO solutions by DSC; assay type: physicochemical; details: cooled to −40° C. and heated to 40° C. at 8° C. per minute
Experimental: Using PerkinElmer Instruments PYRIS Diamond Differential Scanning Calorimetry (“DSC”), samples were cooled to −40° C. and heated to 40° C. at 8° C. per minute for screening purposes.

[2] = Effect of pH on insulin solubility in DMSO; assay type: physicochemical
Experimental: These solutions were lyophilized to dryness ([…]) using a conservative cycle and reconstituted to various nominal concentrations in DMSO. Solubility was measured by visual inspection for clarity and turbidity via A630.

Molecule | temperature of crystallization (Tc) by DSC [1] | solubility in DMSO ([2]; lyophilized at pH 2) | time to slowly dissolve to a clear solution ([2]; pH memory of 7, lower concentration e.g. 10 mg/mL, DMSO) | solubility in DMSO ([2]; pH memory of 7, lowest concentration tested 10 mg/mL)
C[S+](C)[O-] [neat DMSO, dimethylsulfoxide] | 18 °C | – | – | –
insulin | – | at least 100 mg/mL | about 24 hours | poor solubility
